B1: HIS-MtDELLA1 (natural protein, M. truncatula, UniProt A0A396IUP1 1-594, looked up)
chain: MKREHQESFGGGVISNNNKTNTNHLNSSKNINFGECSSMQNTNTKQNMWREEKETNGGGMDELLAALGYKVRSSDMADVAQKLEQLEMVMGSAQEEGINHLSSDTVHYDPTDLYSWVQTMLTELNPDSSQINDPLASLGSSSEILNNTFNDDSEYDLSAIPGMAAYPPQEENTAAKRMKTWSEPESEPAVVMSPPPAVENTRPVVLVDTQETGVRLVHTLMACAEAIQQKNLKLAEALVKHISLLASLQTGAMRKVASYFAQALARRIYGNPEETIDSSFSEILHMHFYESSPYLKFAHFTANQAILEAFAGAGRVHVIDFGLKQGMQWPALMQALALRPGGPPTFRLTGIGPPQADNTDALQQVGWKLAQLAQTIGVQFEFRGFVCNSIADLDPNMLEIRPGEAVAVNSVFELHTMLARPGSVEKVLNTVKKINPKIVTIVEQEANHNGPVFVDRFTEALHYYSSLFDSLEGSNSSSNNSNSNSTGLGSPSQDLLMSEIYLGKQICNVVAYEGVDRVERHETLTQWRSRMGSAGFEPVHLGSNAFKQASTLLALFAGGDGYRVEENNGCLMLGWHTRSLIATSAWKLPQNESK
notes: MtDELLA1 of Medicago truncatula; the trigger factor is inferred from the vector pCold-TF; also called HIS-tagged MtDELLA1; source: E. coli, purified (Ni-NTA Agarose); not shown: His tag, N-terminal, kept
B2: MBP-IPD3 (natural protein, M. truncatula, UniProt A7TUE1 1-513, looked up)
chain: MEGRGFSGLYKNSSEELFLKTVMESPIGMPVPTMEMLGFKTVSQSFRTDSEELFKRWLTNDQEGYNSSSMGLNSRLSKRISTEIANMSNQQHIGVASEGRNNDKSCLQNNFLANDVSSDFNFPIRDPVDRELQSSNLFLAKAWFITDQRMTRSRSSELRRRYTEMQNSQAPQGLDSMFMVPEHDTNTIKEELANFNGFDYLSMCELPSQKGTFMSPSNSSSSTFNTHQLVDVDKVSSCVSMLKGTLQRKKLECQVEKEAAEDGLNEIFCIREPLFQSAFNEEESWNQQKLVNVQGDFTDQVNDPGVMQTLEGTTNFVLDGFANQTNQIQGRTASGEPSQSESSAAAPVISSGLDACEGPSNSNQTLGDSSWKQVGESTQNKVRGVREQIMDNLKDDRKRKSLERYGSVTSAVSDGKMDNTKKRRVERSRKMAEAKERNLTPTIPSDMQAILKRCENLEKEVRSLKLNLSFMNRKDSEQTKQIEDLQKQNEDLADEKERLLEEIERILSETGKI
notes: IPD3 (CYCLOPS) of Medicago truncatula; also called MBP-IPD3 fusion protein; source: E. coli, purified (amylose resin), held on the resin; not shown: MBP, N-terminal, kept
B3: HIS-MtDELLA2 (natural protein, M. truncatula, UniProt A0A396GMX6 1-533, looked up)
chain: MKREHKLEHEDMSSGSGKSGVCWEDDGGGMDELLAVVGYKVKSSDMAEVAQKLEQLEQAMMGNNFHDHDESTIAQHLSNDTVHYNPSDISNWLQTMLSNFDPQPNNPSVNSDDNDLNAIPGKAIYAADEFTSRKRVKRNESVTVTTESTTTRPIMVVETQEKGIRLVHSLMACAEAVEQNNLKMAEALVKQIGYLAVSQEGAMRKVATYFAEGLARRIYGVFPQHSVSDSLQIHFYETCPNLKFAHFTANQAILEAFQGKSSVHVIDFSINQGMQWPALMQALALRPGGPPAFRLTGIGPPASDNSDHLQQVGWRLAQFAQTIHVQFEYRGFVANSLADLDASMLELRSPETESVAVNSVFELHKLNARPGALEKVFSVIRQIRPEIVTVVEQEANHNGPAFLDRFTESLHYYSTLFDSLEGSSVEPQDKAMSEVYLGKQICNVVACEGTDRVERHETLNQWRNRFNSAGFSPVHLGSNAFKQASMLLALFAGGDGYKVEENDGCLMLGWHTRPLIATSAWKLAAANSVVVSH
notes: MtDELLA2 of Medicago truncatula; the trigger factor is inferred from the vector pCold-TF; also called HIS-tagged MtDELLA2; source: E. coli, purified (Ni-NTA Agarose); not shown: His tag, N-terminal, kept

What all share (test): pull-down; MBP fusion on amylose resin captures purified HIS-tagged MtDELLA; western blot with anti-MBP and anti-HIS
Settings in all cases: both partners purified
On the technique in general: A western blot detects proteins with antibodies after separation by electrophoresis.

One assay deals with T1, MBP-NSP2 (M. truncatula, UniProt Q5NE24 1-508).
T1 construct: NSP2 of Medicago truncatula; source: E. coli, purified (amylose resin), held on the resin; not shown: MBP, N-terminal, kept
T1 sequence (Q5NE24 whole entry, the tested form may be a part): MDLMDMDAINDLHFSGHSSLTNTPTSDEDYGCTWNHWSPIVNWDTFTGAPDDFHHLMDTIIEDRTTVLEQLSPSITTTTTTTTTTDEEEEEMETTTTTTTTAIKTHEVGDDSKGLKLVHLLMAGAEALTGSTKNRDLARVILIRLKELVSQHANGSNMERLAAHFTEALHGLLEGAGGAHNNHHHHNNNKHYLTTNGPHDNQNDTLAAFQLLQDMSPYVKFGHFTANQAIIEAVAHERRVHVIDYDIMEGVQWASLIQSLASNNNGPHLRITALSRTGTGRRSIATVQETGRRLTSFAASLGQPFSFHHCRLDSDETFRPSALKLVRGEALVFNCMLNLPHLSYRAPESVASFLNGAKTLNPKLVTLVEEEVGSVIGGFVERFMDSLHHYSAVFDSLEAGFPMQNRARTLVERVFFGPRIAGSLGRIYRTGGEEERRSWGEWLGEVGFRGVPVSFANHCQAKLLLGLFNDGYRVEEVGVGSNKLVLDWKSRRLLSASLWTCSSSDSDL

The assay “HIS-MtDELLA1” has as its target B1.
For the assay “HIS-MtDELLA2”, the target named is B3.

Results on 3 molecules are retold here after publication PMC4990646, “DELLA proteins are common components of symbiotic rhizobial and mycorrhizal signalling pathways” (Nature Communications, 2016).

In the case of B1, the binding result with MBP-NSP2 was “binds”.

For the molecule B2, the binding result with HIS-MtDELLA1 and with HIS-MtDELLA2 was “binds” in each case.

B3: the binding result with MBP-NSP2 was “binds”.
